Assay: soluble on expression in E. coli; label from the status in PepcDB or PDB records

| Sequence | soluble on expression in E. coli |
| --- | --- |
| MADEAQAPPAEGAPPAEGEAPPPAEGAEGAVEGGEAAPPAEPAEPIKHSYTLFYFNVKALAEPLRYLFAYGNQEYEDVRVTRDEWPALKPTMPMGQMPVLEVDGKRVHQSISMARFLAKTVGLCGATPWEDLQIDIVVDTINDFRLKIAVVSYEPEDEIKEKKLVTLNAEVIPFYLEKLEQTVKDNDGHLALGKLTWADVYFAGITDYMNYMVKRDLLEPYPALRGVVDAVNALEPIKAWIEKRPVTEV | soluble |
| MRFVPSYLIGFITLYLKGKVMLSIFDIYKIGVGPSSSHTNGPMIAGYRFVQQLLPQLNKVARIQVDLYGSLSLTGKGHHTDRATLLGLMGNQPATIKIGDANQTLREALQTGKLRLNGQHDIAFDYHQDLLFHQDNLPLHENGMTLSAFDTQGQQIDFETYYSVGGGFVATAEQLQNGT | not soluble |
| MSLASFPHRNLTWNDINFVHTTDTHGWYSGHINQPLYHANWGDFISFTTHMRRIAHSRNQDLLLIDSGDRHDGNGLSDITSPNGLKSTPIFIKQDYDLLTIGNHELYLWENSKQEYETVVNHFQDKYVCSNVDIRLDNGLFVPLGLKYKYFTTPIRGIRVMAFGFLFDFKRFNSGTRVTPMAETIHEPWFQEALKHEVDLIIIVGHTPISHNWGEFYQVHQYLRQFFPDTIIQYFGGHSHIRDFTVFDSLSTGLQSGRYCETVGWTSVNLDKADLNLPVRQRFSRSYIDFNTDSFKYHTNLDKEFDTAKGKLVSKLIRETRKELKLDTLIGYVKTNYYVDYVPIDHPKSIFNLLALKILKTLPKSKHEERITIINTGSIRYDLYKGPYTIDSKFIVSPFENIWVNITVPKSVATKVAAKLNDADYISASRLKPPHQYDLQVQDLSTSPHQAHFEMQEKLPKGYVTHDDFGADGDDTLHRAVVNFPVPNVIQSVEINDEVDSPVNLVFYSFITPNIIWALKELNFSTEQVPTPYSDIYLGTLLNEFVANNEGHHHHHH | soluble |
| GSHMASMTGGQQMGRGSNNGDICIKDSINTLWTGINPPPNCQIVENTNTNDGKLTLVLVKNGGLVNGYVSLVGVSDTVNQMFTQKTANIQLRLYFDSSGNLLTEESDLKIPLKNKSSTATSETVASSKAFMPSTTAYPFNTTTRDSENYIHGICYYMTSYDRSLFPLNISIMLNSRMISSNVAYAIQFEWNLNASESPESNIATLTTSPFFFSYITEDDN | soluble |
| MKMKQVSRSALVSFSAEQMFHLVNDVARYPEFLPGCSGSCVLEQSEAHMVASVDVSKAGISKTFTTSNQLTPGVSIAMSLVDGPFKTLRGGWFFTPLDEAACKVELRLEFEFSSKMIELAFGKIFNELTSNMVNAFTRRAKQVYGEMAGDPLEHHHHHH | not soluble |
| MVPLESSTLFGVYGGFTDSMMMRETTTNNQDPSGDTCSVSDPAPGSTDYYNISSSPVKDDGTAPKNDVVCSINVDDNKDKSWLRLGIGPEENTDGSYKLQRCCSKNGSGRENSLELSLFSSSSTAVSSSIDHLPTQPLQLPYHHDQLLTMRGPSLVYNHQLMKPQTLLNRGFSFPSSKPWIPQYMAPFRPSSLSDRDVTNNNSLSRSCCVDEGGAGPSSEFRVLDPPRRPHSGLWFLLQASQFQ | soluble |
| MGSDKIHHHHHHMIGYGKTVRDIRTSKGIHQKDLYDNIISKSFAIEFEKGKHDITLSLFEKILKRMNMDLDEFFYIHRELSKSAEKNYLCMNQERGNIYDLESLELLYSELSKHDGELVEVWKAFVRSRIKMVEHLLKYHEFTVDVITAKDKCTIQKYLFSIDTWTLEELKICANSIYFFEEDLQIQFLNQVIKAIQPYKNYDRARRVLCTLLINTIEVFISRSQLSSASKLLILLDSLCIYNESAFYRNISNFLKGLLKMQSNQIKEGYAQAKKAIQLMNDLHFEEIAYLYEILLDQFIQLEGIDILNY | not soluble |
| MIIYFIGTGGSEGIPVHLCDCNTCNEARKFRFAQRRPSTLAVIGENGEVILFDVGTDIREFLNVPLDAIFLTHWHHDHIYGLYKLRWIARETNLYAPEGHADALILQDPKNLRPKIIKAGEKIRIGDIKVTSVKLNHQIETLGYIIEEDGKRVAILYDTKGLPPETREYLEDISPLRVAIVDATYPPGFVDPYHNNVNEAVEMSIDIAERIVLSHISHKNLPFLKLVNYTRKMWGGKVLVAYDGMVFYV | soluble |
| MTKQTKYVQTVIDELATKGVEALDAMANFTQEQVDHIVHQAAIAALDKHMYLAKLAVDETGRGIYEDKAIKNMYASEYIWNSIKYDKPVGVIAEDKEQGLVSIAEPVGVICGVTPTTNPTSITIFKALIAL | not soluble |
| MGSSHHHHHHSSGLVPRGSHMDTTVPTFSLAELQQGLHQDEFRRCLRDKGLFYLTDCGLTDTELKSAKDLVIDFFEHGSEAEKRAVTSPVPTMRRGFTGLESESTAQITNTGSYSDYSMCYSMGTADNLFPSGDFERIWTQYFDRQYTASRAVAREVLRATGTEPDGGVEAFLDCEPLLRFRYFPQVPEHRSAEEQPLRMAPHYDLSMVTLIQQTPCANGFVSLQAEVGGAFTDLPYRPDAVLVFCGAIATLVTGGQVKAPRHHVAAPRRDQIAGSSRTSSVFFLRPNADFTFSVPLARECGFDVSLDGETATFQDWIGGNYVNIRRTSKA | soluble |
| DQVSRFRLLGGNQVRPLAGGDEAYPAMMQAIREARVSIAMQSYIFDCDPIGREMAQALVEAQQRGVQVRVLIDAIGSKYSRPPIVRTLVRGGVRTARFMTNPLGVMRMPYANLRSHRKILVVDGHVGFTGGMNIRAAFVTALAGKAANGDTHFRLEGPVVAQLMAVFAHDWNFTTRESLEGPTWFPPAPERAPGSVPMRCVASGPDSALGSTHKM | not soluble |
| PQDAVIWLGAEKTGLKLTNSSNTFEGVIDGVDITVTKAQTSGETAIGLGIGADDEATKEQLNKFVDAYNTLISTIDEHTQIGSEDKKRGVLASDPTMRSIESQLSSLVRGEHGGMRLSEIGVTLDRHGKLKVDQEKFAEAQKNNSAGLEAMFNGDGALLDSMDAMAEPFLKFSSGAFKSRKEALQANLDRLSDKQTTLERKYDMSYKRYLKQFTQMNTLMTQMNQ | not soluble |
| MGSDKIHHHHHHMSNVKTAEFKRPQLSLPHSADKLLLHSCCAPCSGEVMEAITASGIDYTIFFYNPNIHPQREYLIRKEENIRFAEQHNVPFIDADYDSDNWFERAKGMEWEPERGIRCTMCFDMRFERTALYAAENGFSVISSSLGISRWKNMQQINECGQNAAQKYPGVTYWDYNWRKGGGSARMIEISKREHFYQQEYCGCIYSLRDSNKHRKSQGRDIIRIGKLYYGDEAE | not soluble |
| MGSDKIHHHHHHMQVPSGAADLPEQMGTKAKFWFDDSRRLFKEGRPGTGENWAEVIAAELAALLGLPHATYSLAEYEGRRGVVTESFVPSGARLILGNELIGFAARETVSRHTRGQAHTIGRLSSLLNRPQVALPSGWVSPTSFFNAADVMSGYLLLDALIANQDRHEENWGLINSHGAIYLAPTFDHASSLGRNETDQRRIQKLDANHPDHGVLGYARRAKVPIYDGMGPLQSGEAFFAFARSCPDKGAYWLNRLHELDPSSFLALLNRIPVGWITDPARRFAAELLKVNRDRLLDEK | not soluble |
| KCGFSYGVGFNVFNYKAVVTKYNNPEGIIYNNHTGLAANKGYYEGMDIGEIWGYRADDLFLSNREIDDYLRNVNLTAFKSNDLWRRGDLKYIDSNGDGRVDGGKGTLADHGDLQIIGNTTPKYSFGINLNLGYKGFEVSTLLQGVAKRDFPISGSNYMFGGNNYNFKEHLDYFSTENPNGYLPRLTGWKDDKDFLVNTGYNTTRYLLNAAYMRMKNLTVAYTFNKKQLKHIGISNLKVYVTCDNLFTVTKLPKQFDPETLNQVNMSAGGDAQNTAPGLTSPMKQNGNGMVYPMNRNFVFGLDFTF | not soluble |
| MYEGTLSMAVQSLGQAVNYCKRFGPRLVATKMLYKLLPQAGFSVCRQIEEYLKHYYLPDVAYHKTEFCGKIQADAPIWVMWWQGEERMPDVVRLAVASMRRFAGRRPVMLITKDNYHDYAKRSVDFYRYVEHGAISLTHFSDYVRFDLLHKYGGFWLDATLLMTAPIPDFVNDLRLFSIKHGTIRPGEQWSPMWSRNWTAYCWGGCAGDPFFDFMLRFFERYHEREGSVMIDYFLIDRIISVAYQEFVDVRNTIDAIPVNNVDVLTSPIVNTASINHRSDDNGTFLHKLSWKEPPQPDCGNGQRSWFGQLLDQYGIRLEHHHHHH | not soluble |
| MSLEFSDAELARASALQKRLVTLDSHLDTPANLERGDFDVMQGHAGNRLSQVDYPRMLEGALDGGFWAVYTGQGNRSAAAHLDDRDAGLQRLMKIHNLLAAQPQRFALATTPADAARIKAAGKRVVYISMENASPLVADPSLLRFYYAQGLRLMSTVHFLNNEFADSATDPKGAEWKGLSPAGKQLVQQALGIVIDQSHASDAVFDQLIALSPVPIVLSHSGARAVYNHPRNIDDARLKVLAAHGGVIQVNSYGGYLIDSGASPERKAAEKALADQYGGWEHLKMSDGTALSEALKALDARYPVKRATEEDFFAHLEHVLAVAGPAHVGIGMDWDGGGGVVGLEDVSDLPRITAWLLRKGYSEPQIAGIWGGNLLRVMEQAQAYAAGNRESGVGNREGHHHHHH | not soluble |
| MNVVVERKNVRNVRIQVLADGKVRVVAPPDFDVDSFISKHADWIKKKRAEIESLAEEIKGKERMLLLNGKFYHLVKDSGFEIKEGEEVGVVKYYSLRNLKRNLASILREELKRNVSFYSRLLGINYGRIFIKMQKTKWASCSSKGNLSFNLASLALPEKLREYIVVHELVHLLEPKHSRLFWETVGFYYPEYEEAERELKKYWIFVERNEVWRMLRALK | soluble |
| PFINIKLVPENGGPTNEQKQQLIEGVSDLMVKVLNKNKASIVVIIDEVDSNNYGLGGESVHHLRQKN | soluble |
| GPGSMEARGNVDGEKFRSINTLRTRFPALTVSDARALLERHNWNVAIAGAEAERGERQRTKADSANYFVGGGDKGSGQQVMAPSGESVSDRSGEIASGSGVHSMIDRIFRKAEVEGAKASGGDGGSGVEDNEPRAFYGRGQRLGYTANPSPYVASTLRAERSVCITVYRDGFEVDSNGFVPLNSDEGRQFVEAMDKGYVPPSLAAKYPNTDLTVNLRDCLQVDYVPPSYIAFQGDGHRLAAPSSTAASSAAPANAQASPATAGRSGTPAYDPSRTVEVRSDEATSFVVLLNTRGERRQVQVNPERHTVDDLYSLAHAYQPELQNFILVERGMPPRRLEASTRSQTIAQAKLSRAVVALQQM | soluble |
| MAVLYKSFQSVLEDKNHKKMFHPRVIYTANISTSQIAKEIAAYSSLSPGDVKNTLDNLVTVMGQHLQASESVSLDGFGTFRMVMKSNGKGVETSEEVSAAQASLTVRFLPNFTKNPDRTTATRSLVTGAKCVRFDRTDTPASGSGNTNKPGGGDGGEGGGEEAPDPTV | not soluble |
| MTQDYRVLLYYQYVPIEDGETFAQKHLADCKELGLKGRILVADEGINGTVSGTIEQTNAYMELMKNDPRFSSTIFKIDEAEQNAFKKMHVRYRPELVNLSLEDDVNPLELTGAYLDPKEFREAMLDENTVVIDARNDYEFDLGHFRGAIRPEIRSFRELPQWIRDNKEQFMEKRVLTYCTGGIRCEKFSGWLVREGFKDVGQLHGGIATYGKDPEVQGDLWDGQMYVFDSRIAVPINQKEHVIVGRDWFDGSPCERYINCGNPECNRQMLASEENEAKYLGACSHECRVHPNNRYIKAHQLSNQEVQERLALLEKDLASLEHHHHHH | soluble |
| MAHHHHHHMRFLSSSAVSPSPIRPSTGGASGKERLHHELPILHWRAGGGGEVGGGQHDDADSSDEYNEAHLCCDDWASSPAEPAAAAATFQTRQSDTPDGLHVDSDDDDNADDDGGEDTAGQTWIEEALRRAEAKCAVLRLELTFATERAVAAEANARARERECAELHALASRMQAQLAAAQMTAEWATANTRADAEVQVAACTASLDDIAASAFSSPNSPNRLGTTSLSMRKGTALADGTVWRRRHDIVAQELATLKVSMAEQLAVLDRLGMQPPFSEELVCAAERRLRHVKVAHAPGTAMKASQPDATIPGTPHTLTRSTCVDSAASADLSAGGASVTATTKKIQVRNGNKIAALLNLRKQNRHQEKPAAAAADAMATGVTDSATTPSTSAPPVKRDGSEDCRTTLDAKENHYVV | not soluble |

— the DeepSol protein solubility set
